Data as given in the Human Domainome abundance scans (Beltran et al. 2025).
± gives the uncertainty stated by the source.

B1: Dystrobrevin alpha, residues 235 to 294; numbered along this chain, Q9Y4J8 (parent)
chain: ENVFHPVECSYCHSESMMGFRYRCQQCHNYQLCQDCFWRGHAGGSHSNQHQMKEYTSWKS

Variants of: B1
Experiment: abundance fitness (aPCA) (normalised: wild type 0, dead -1); higher = more abundant; growth selection in yeast, the domain comes from the species named
Settings: Homo sapiens

Variant | abundance fitness
ENVFHPVECSYCHSESMMGFRYRCCQCHNYQLCQDCFWRGHAGGSHSNQHQMKEYTSWKS [Q25C] | -0.102 ± 0.1
ENVFHPVECSYCHSESMMGFRYRCAQCHNYQLCQDCFWRGHAGGSHSNQHQMKEYTSWKS [Q25A] | -0.213 ± 0.063
ENVFHPVECSYCHSESMMGFRYRCDQCHNYQLCQDCFWRGHAGGSHSNQHQMKEYTSWKS [Q25D] | -0.117 ± 0.095
ENVFHPVECSYCHSESMMGFRYACQQCHNYQLCQDCFWRGHAGGSHSNQHQMKEYTSWKS [R23A] | -0.049 ± 0.076
ENVFHPVECSYCHSESMMGFRYLCQQCHNYQLCQDCFWRGHAGGSHSNQHQMKEYTSWKS [R23L] | 0.002 ± 0.063
ENVFHPVECSYCHSESMMGFRYHCQQCHNYQLCQDCFWRGHAGGSHSNQHQMKEYTSWKS [R23H] | 0.201 ± 0.11
ENVFHPVECSYCHSESMMGFRYSCQQCHNYQLCQDCFWRGHAGGSHSNQHQMKEYTSWKS [R23S] | 0.066 ± 0.05
ENVFHPVECSYCHSESMMGFRYECQQCHNYQLCQDCFWRGHAGGSHSNQHQMKEYTSWKS [R23E] | 0.03 ± 0.059
ENVFHPVECSYCHSESMMGFRYGCQQCHNYQLCQDCFWRGHAGGSHSNQHQMKEYTSWKS [R23G] | -0.158 ± 0.061
ENVFHPVECSYCHSESMMGFRYVCQQCHNYQLCQDCFWRGHAGGSHSNQHQMKEYTSWKS [R23V] | 0.074 ± 0.081
ENVFHPVECSYCHSESMMGFRYMCQQCHNYQLCQDCFWRGHAGGSHSNQHQMKEYTSWKS [R23M] | 0.006 ± 0.093
ENVFHPVECSYCHSESMMGFRYYCQQCHNYQLCQDCFWRGHAGGSHSNQHQMKEYTSWKS [R23Y] | -0.138 ± 0.11
ENVFHPVECSYCHSESMMGFRYQCQQCHNYQLCQDCFWRGHAGGSHSNQHQMKEYTSWKS [R23Q] | 0.034 ± 0.074
ENVFHPVECSYCHSESMMGFRYICQQCHNYQLCQDCFWRGHAGGSHSNQHQMKEYTSWKS [R23I] | -0.05 ± 0.087
ENVFHPVECSYCHSESMMGFRYFCQQCHNYQLCQDCFWRGHAGGSHSNQHQMKEYTSWKS [R23F] | -0.034 ± 0.087
ENVFHPVECSYCHSESMMGFRYCCQQCHNYQLCQDCFWRGHAGGSHSNQHQMKEYTSWKS [R23C] | 0.176 ± 0.084
ENVFHPVECSYCHSESMMGFRYTCQQCHNYQLCQDCFWRGHAGGSHSNQHQMKEYTSWKS [R23T] | -0.008 ± 0.073
ENVFHPVECSYCHSESMMGFRYKCQQCHNYQLCQDCFWRGHAGGSHSNQHQMKEYTSWKS [R23K] | 0.147 ± 0.069
ENVFHPVECSYCHSESMMGFRYDCQQCHNYQLCQDCFWRGHAGGSHSNQHQMKEYTSWKS [R23D] | -0.022 ± 0.091
ENVFHPVECSYCHSESMMGFRYWCQQCHNYQLCQDCFWRGHAGGSHSNQHQMKEYTSWKS [R23W] | -0.276 ± 0.078
ENVFHPVECSYCHSESMMGFRYPCQQCHNYQLCQDCFWRGHAGGSHSNQHQMKEYTSWKS [R23P] | -0.509 ± 0.091
ENVFHPVECSYCHSESMMGFRYRSQQCHNYQLCQDCFWRGHAGGSHSNQHQMKEYTSWKS [C24S] | -0.851 ± 0.071

Variant | abundance fitness
ENVFHPVECSYCHSESMMGFRYRIQQCHNYQLCQDCFWRGHAGGSHSNQHQMKEYTSWKS [C24I] | -0.822 ± 0.19
ENVFHPVECSYCHSESMMGFRYRHQQCHNYQLCQDCFWRGHAGGSHSNQHQMKEYTSWKS [C24H] | -0.887 ± 0.15
ENVFHPVECSYCHSESMMGFRYRMQQCHNYQLCQDCFWRGHAGGSHSNQHQMKEYTSWKS [C24M] | -0.731 ± 0.12
ENVFHPVECSYCHSESMMGFRYRYQQCHNYQLCQDCFWRGHAGGSHSNQHQMKEYTSWKS [C24Y] | -0.935 ± 0.23
ENVFHPVECSYCHSESMMGFRYRNQQCHNYQLCQDCFWRGHAGGSHSNQHQMKEYTSWKS [C24N] | -0.691 ± 0.12
ENVFHPVECSYCHSESMMGFRYRFQQCHNYQLCQDCFWRGHAGGSHSNQHQMKEYTSWKS [C24F] | -1.04 ± 0.14
ENVFHPVECSYCHSESMMGFRYRTQQCHNYQLCQDCFWRGHAGGSHSNQHQMKEYTSWKS [C24T] | -0.752 ± 0.1
ENVFHPVECSYCHSESMMGFRYRWQQCHNYQLCQDCFWRGHAGGSHSNQHQMKEYTSWKS [C24W] | -1.07 ± 0.16
ENVFHPVECSYCHSESMMGFRYRVQQCHNYQLCQDCFWRGHAGGSHSNQHQMKEYTSWKS [C24V] | -0.838 ± 0.1
ENVFHPVECSYCHSESMMGFRYRGQQCHNYQLCQDCFWRGHAGGSHSNQHQMKEYTSWKS [C24G] | -0.736 ± 0.058
ENVFHPVECSYCHSESMMGFRYRDQQCHNYQLCQDCFWRGHAGGSHSNQHQMKEYTSWKS [C24D] | -0.441 ± 0.18
ENVFHPVECSYCHSESMMGFRYRRQQCHNYQLCQDCFWRGHAGGSHSNQHQMKEYTSWKS [C24R] | -0.97 ± 0.071
ENVFHPVECSYCHSESMMGFRYRLQQCHNYQLCQDCFWRGHAGGSHSNQHQMKEYTSWKS [C24L] | -0.911 ± 0.062
ENVFHPVECSYCHSESMMGFRYRPQQCHNYQLCQDCFWRGHAGGSHSNQHQMKEYTSWKS [C24P] | -1.08 ± 0.28
ENVFHPVECSYCHSESMMGFRYRQQQCHNYQLCQDCFWRGHAGGSHSNQHQMKEYTSWKS [C24Q] | -0.561 ± 0.1
ENVFHPVECSYCHSESMMGFRYREQQCHNYQLCQDCFWRGHAGGSHSNQHQMKEYTSWKS [C24E] | -0.615 ± 0.046
ENVFHPVECSYCHSESMMGFRYRKQQCHNYQLCQDCFWRGHAGGSHSNQHQMKEYTSWKS [C24K] | -0.928 ± 0.14
ENVFHPVECSYCHSESMMGFSYRCQQCHNYQLCQDCFWRGHAGGSHSNQHQMKEYTSWKS [R21S] | 0.138 ± 0.095
ENVFHPVECSYCHSESMMGFAYRCQQCHNYQLCQDCFWRGHAGGSHSNQHQMKEYTSWKS [R21A] | -0.02 ± 0.1
ENVFHPVECSYCHSESMMGFIYRCQQCHNYQLCQDCFWRGHAGGSHSNQHQMKEYTSWKS [R21I] | -0.128 ± 0.16
ENVFHPVECSYCHSESMMGFHYRCQQCHNYQLCQDCFWRGHAGGSHSNQHQMKEYTSWKS [R21H] | 0.165 ± 0.2
ENVFHPVECSYCHSESMMGFMYRCQQCHNYQLCQDCFWRGHAGGSHSNQHQMKEYTSWKS [R21M] | 0.063 ± 0.11
